From publication PMC11662940 (Nucleic Acids Research, 2024)

Target: T1, ScUba4 (Saccharomyces cerevisiae Uba4) (S. cerevisiae, UniProt P38820 1-440)
T1 sequence: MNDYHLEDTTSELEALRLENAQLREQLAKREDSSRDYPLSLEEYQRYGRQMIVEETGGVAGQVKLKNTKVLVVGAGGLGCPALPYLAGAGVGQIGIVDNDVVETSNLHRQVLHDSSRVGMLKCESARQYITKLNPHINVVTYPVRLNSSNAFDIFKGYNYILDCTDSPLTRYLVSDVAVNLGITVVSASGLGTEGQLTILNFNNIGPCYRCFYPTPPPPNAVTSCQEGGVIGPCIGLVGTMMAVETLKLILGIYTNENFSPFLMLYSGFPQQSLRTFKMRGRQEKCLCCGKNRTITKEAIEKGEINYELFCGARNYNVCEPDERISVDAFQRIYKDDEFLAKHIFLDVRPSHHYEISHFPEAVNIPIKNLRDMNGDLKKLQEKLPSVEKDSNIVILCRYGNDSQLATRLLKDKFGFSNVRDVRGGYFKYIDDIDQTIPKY
Assay: SEC

B1: Thiocarboxylated ScUrm1 (natural protein)
chain: MVNVKVEFLGGLDAIFGKQRVHKIKMDKEDPVTVGDLIDHIVSTMINNPNDVSIFIEDDSIRPGIITLINDTDWELEGEKDYILEDGDIISFTSTLHGG
modifications: thiocarboxylate at the C-terminus
Q: Does B1 bind?
A: binds
